These are literature values, as cited in paper PMC4497409.

Several values for one entry are separate records, joined by “and”; a condition that tells them apart may be missing. Identical values can stand only once.

The target in data set [1] is Frizzled4 CRD (Mus musculus) (UniProt Q61088). The experiment in a line: ELISA.
Data set [2] deals with Lrp6 P1E1P2E2 (Homo sapiens) (UniProt O75581). The data set can be described thus: AlphaScreen. In general terms: In Alpha technology, singlet oxygen from a donor bead excites a nearby acceptor bead.
In data set [3] the target is Frizzled4 CRD (Homo sapiens) (UniProt Q9ULV1). The experiment in a line: AlphaScreen.
Sequence of Frizzled4 CRD (Homo sapiens) (Q9ULV1 40-161): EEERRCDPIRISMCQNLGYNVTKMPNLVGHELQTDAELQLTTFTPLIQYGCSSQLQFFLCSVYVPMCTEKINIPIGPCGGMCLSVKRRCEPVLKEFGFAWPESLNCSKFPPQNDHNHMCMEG

Sequence of Norrin (P48744 25-131): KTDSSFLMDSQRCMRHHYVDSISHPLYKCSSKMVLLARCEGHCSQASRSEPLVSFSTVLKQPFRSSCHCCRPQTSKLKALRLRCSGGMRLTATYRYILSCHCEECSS
Sequence of Lrp6 P1E1P2E2 (Homo sapiens) (O75581 20-630): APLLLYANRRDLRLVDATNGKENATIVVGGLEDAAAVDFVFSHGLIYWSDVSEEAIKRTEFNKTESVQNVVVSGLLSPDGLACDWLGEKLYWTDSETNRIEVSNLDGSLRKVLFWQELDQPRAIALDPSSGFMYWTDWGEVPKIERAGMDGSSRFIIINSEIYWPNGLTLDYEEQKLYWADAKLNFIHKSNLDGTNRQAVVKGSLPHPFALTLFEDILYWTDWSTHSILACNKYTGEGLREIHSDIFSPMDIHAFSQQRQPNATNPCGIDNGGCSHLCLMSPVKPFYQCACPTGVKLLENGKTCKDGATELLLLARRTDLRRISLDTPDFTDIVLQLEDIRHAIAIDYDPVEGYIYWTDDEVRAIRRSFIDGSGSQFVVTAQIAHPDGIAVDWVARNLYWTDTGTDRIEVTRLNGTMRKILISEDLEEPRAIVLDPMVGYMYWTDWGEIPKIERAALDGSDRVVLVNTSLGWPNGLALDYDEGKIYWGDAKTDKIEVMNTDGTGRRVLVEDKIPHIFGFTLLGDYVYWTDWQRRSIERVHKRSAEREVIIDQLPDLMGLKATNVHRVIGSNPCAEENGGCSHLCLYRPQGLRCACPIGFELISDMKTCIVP
Sequence of Frizzled4 CRD (Mus musculus) (Q61088 40-161): as the sequence (Q9ULV1 40-161) above, with S12A, K94R, E102D, S103T counted along it

Consider Norrin (from UniProt P48744), for which the Kd (commonly the constant that tells how readily two partners part at equilibrium) in data set [1] is 3.5 nM.
Take Norrin (from UniProt Q00604): the dissociation constant Kd in data set [2] was 450 nM; in data set [3], 11 nM and 5 nM.
